Source: EP4541822A2 (Tsinghua University, dated 2025)

B1: recombinant protein (SH3)5-DNB (other)
chain: MKHHHHHHHENLYFQGHMDLNMPAYVKFNYMAEREDELSLIKGTKVIVMEKSSDGWWRGSYNGQVGWFPSNYVTEEGDSPLASGAGGSEGGGSEGGTSGATDLNMPAYVKFNYMAEREDELSLIKGTKVIVMEKSSDGWWRGSYNGQVGWFPSNYVTEEGDSPLASGAGGSEGGGSEGGTSGATHMDLNMPAYVKFNYMAEREDELSLIKGTKVIVMEKSSDGWWRGSYNGQVGWFPSNYVTEEGDSPLASGAGGSEGGGSEGGTSGATDLNMPAYVKFNYMAEREDELSLIKGTKVIVMEKSSDGWWRGSYNGQVGWFPSNYVTEEGDSPLASGAGGSEGGGSEGGTSGATDLNMPAYVKFNYMAEREDELSLIKGTKVIVMEKSSDGWWRGSYNGQVGWFPSNYVTEEGDSPLGGSGGSGGSGGSMEVQLLESGGGLVQPGGSLRLSCAASGTFDKINNMGWYRQAPGKQRDLVAQITPGGITDYADSVKGRFTISRDNSKNTLYLQMNSLRPEDTAVYYCNAEILKRAYIDVYVNYWGQGTLVTVSS
B2: recombinant protein (SIM)6-R4L (other)
chain: MKHHHHHHHENLYFQGAMSSKVDVIDLTIESSSDEEEDPPAKRGGSGGSGGSGGSKVDVIDLTIESSSDEEEDPPAKRGGSGGSGGSGGSKVDVIDLTIESSSDEEEDPPAKRGAMKGGSGGSGGSGGSMSSKVDVIDLTIESSSDEEEDPPAKRGGSVGSGGSGGSKVDVIDLTIESSSDEEEDPPAKRGGSGGSGGRGGSKVDVIDLTIESSSDEEEDPPAKRGAMRCWGGSGGSGGSGGSMGMCYRKCRGGRRWCYQKCGGSGGSGGSGGS
notes: also called (SIM)6-R4L (Red)
B3: recombinant protein (SIM)6-CNB (other)
chain: MKHHHHHHHENLYFQGAMSSKVDVIDLTIESSSDEEEDPPAKRGGSGGSGGSGGSKVDVIDLTIESSSDEEEDPPAKRGGSGGSGGSGGSKVDVIDLTIESSSDEEEDPPAKRGAMKGGSGGSGGSGGSMSSKVDVIDLTIESSSDEEEDPPAKRGGSVGSGGSGGSKVDVIDLTIESSSDEEEDPPAKRGGSGGSGGRGGSKVDVIDLTIESSSDEEEDPPAKRGAMRCWGGSGGSGGSGGSMGEVQLMESGGGLVQAGGSLRLSCAASGRTFNNYAMGWFRRAPKGEREFVAAITRSGVRSGVSAIYGDSVKDRFTISRDNAKNTLYLQMNSLKPEDTAVYTCAASAIGSGALRRFEYDYSGQGTQVTVSS
notes: The entry also holds a 7xHis tag and TEV site; Labelled with Alexa594 for imaging; also called (SIM)6-CNB (Red)
B4: recombinant protein (PRMH)5-CNB (other)
chain: MKHHHHHHHENLYFQGHMKGGSWGGSKKTPPPVPPRTTSKGGSGGSGGSGGSKKTPPPVPPRTTSKGGSGGSGGSGGSKKTPPPVPPRTTSKGGSGGSGGSGGSKKTPPPVPPRTTSKGGSGGSGGSGGSKKTPPPVPPRTTSKGGSGSKNLYFQGGSGGSGGSGGSMEVQLMESGGGLVQAGGSLRLSCAASGRTFNNYAMGWFRRAPKGEREFVAAITRSGVRSGVSAIYGDSVKDRFTISRDNAKNTLYLQMNSLKPEDTAVYTCAASAIGSGALRRFEYDYSGQGTQVTVSS
notes: The entry also holds a 7xHis tag and TEV site; Labelled with Alexa594; also called (PRMH)5-CNB (Red)
B5: recombinant protein (SIM)3-CNB (other)
chain: MKHHHHHHHENLYFQGAMKVDVIDLTIESSSDEEEDPPAKRGGSGGSGGSGGSMMKVDVIDLTIESSSDEEEDPPAKRGGSGGSGGSGGSMMKVDVIDLTIESSSDEEEDPPAKRGGSGGSGGSGGSMGEVQLMESGGGLVQAGGSLRLSCAASGRTFNNYAMGWFRRAPKGEREFVAAITRSGVRSGVSAIYGDSVKDRFTISRDNAKNTLYLQMNSLKPEDTAVYTCAASAIGSGALRRFEYDYSGQGTQVTVSS
notes: The entry also holds a 7xHis tag and TEV site; Red-labelled for imaging; also called (SIM)3-CNB (Red)

Columns and labels:
[1] = target: death receptor 5 (DR5) (human, UniProt O14763 56-440); assay: cell-based or functional assay
[2] = target: T1, multivalent domain (SUM)5; assay: confocal imaging of SJSA-1 cells, (SIM)6-R4L (Red) plus (SUM)5 (Green), 100 nM each (Fig. 2A)
T1 construct: Labelled with Alexa647 for imaging; also called (SUM)5 (Green)
T1 sequence (chain, as listed by the source): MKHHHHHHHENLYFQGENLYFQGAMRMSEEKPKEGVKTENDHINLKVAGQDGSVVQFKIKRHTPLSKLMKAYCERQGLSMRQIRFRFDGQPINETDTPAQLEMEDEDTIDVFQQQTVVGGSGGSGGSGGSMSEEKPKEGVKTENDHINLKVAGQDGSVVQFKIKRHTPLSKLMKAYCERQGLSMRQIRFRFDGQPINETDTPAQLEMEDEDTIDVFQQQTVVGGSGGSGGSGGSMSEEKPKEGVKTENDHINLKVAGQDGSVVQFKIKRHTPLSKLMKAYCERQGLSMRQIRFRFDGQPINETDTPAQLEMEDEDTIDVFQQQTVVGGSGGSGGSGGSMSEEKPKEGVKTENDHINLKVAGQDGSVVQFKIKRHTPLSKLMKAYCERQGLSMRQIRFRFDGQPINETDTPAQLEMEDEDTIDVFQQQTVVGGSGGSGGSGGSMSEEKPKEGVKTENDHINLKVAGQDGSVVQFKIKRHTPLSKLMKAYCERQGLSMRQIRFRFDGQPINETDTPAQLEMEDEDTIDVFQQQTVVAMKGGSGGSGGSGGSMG

[3] = target: T2, CXC motif chemokine receptor 4 (CXCR4) (human, UniProt P61073 1-352); assay: confocal imaging of SJSA-1 cells; membrane puncta with the ligand fusions, none with the multivalent domains alone
T2 construct: whole, on cells; Endogenous receptor on human tumour cell lines; also called chemokine receptor CXCR4
T2 sequence (P61073 whole entry, the tested form may be a part): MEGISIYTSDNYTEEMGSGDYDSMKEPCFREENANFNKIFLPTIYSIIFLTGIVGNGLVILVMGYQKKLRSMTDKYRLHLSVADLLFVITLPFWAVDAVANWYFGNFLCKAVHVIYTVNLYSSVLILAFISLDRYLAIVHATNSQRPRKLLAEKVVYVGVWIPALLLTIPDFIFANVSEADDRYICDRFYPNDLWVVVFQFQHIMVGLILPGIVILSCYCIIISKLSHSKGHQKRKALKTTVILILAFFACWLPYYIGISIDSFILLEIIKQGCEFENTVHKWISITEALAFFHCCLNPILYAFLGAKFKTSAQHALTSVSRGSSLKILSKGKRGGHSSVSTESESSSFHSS

[4] = target: T3, recombinant protein (SUM)5-DNB; assay: fluorescence imaging of SJSA-1 cells, 100 nM (Figs. 3A, 3B)
T3 construct: The entry also holds a 7xHis tag and TEV site; Labelled with Alexa647 for imaging; also called (SUM)5-DNB (Green)

[5] = target: T2, CXC motif chemokine receptor 4 (CXCR4); assay: fluorescence imaging of SJSA-1 cells with anti-CXCR4 immunostaining (Figs. 3A, 3B)
[6] = target: B1; assay: confocal imaging of SJSA-1 cells, 100 nM each (Fig. 9A)
[7] = target: T4, recombinant protein (SUM)3-DNB; assay: fluorescence imaging of SJSA-1 cells (Figs. 5A, 5B)
T4 construct: The entry also holds a 7xHis tag and TEV site; Green-labelled for imaging; unlabelled in the apoptosis assays; also called (SUM)3-DNB (Green)

[8] = target: T2, CXC motif chemokine receptor 4 (CXCR4); assay: fluorescence imaging of SJSA-1 cells with anti-CXCR4 immunostaining (Figs. 5A, 5B)

Binder: B1
- apoptotic ratio of SJSA-1 cells, Annexin V-FITC/PI flow cytometry, 4 h; (SH3)5-DNB (Green) added together with (PRMH)5-CNB (Red) at 100 nM [1]: ~58.4%

Binder: B2
- binding result [2]: binds
- binding result [3]: binds

Binder: B3
- binding result [4]: binds
- binding result [5]: binds

Binder: B4
- binding result [6]: binds

Binder: B5
- binding result [7]: binds
- binding result [8]: binds
